According to patent US20220073599A1 (Hoffmann-La Roche, published 2022):
Where a chain is given by its changes, count along the chain named. Each block holds one binder with its values, some of them ahead of it.

Assays:
[1] = biological target: T1, human VEGFA-121-His (human, UniProt P15692 181-395); test: KinExA equilibrium titration in solution, VEGFA-121
T1 construct: Prepared in-house; not shown: His tag
T1 sequence: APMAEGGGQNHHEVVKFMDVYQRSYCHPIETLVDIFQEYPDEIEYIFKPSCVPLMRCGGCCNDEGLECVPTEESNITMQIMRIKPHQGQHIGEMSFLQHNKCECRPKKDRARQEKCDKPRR

[2] = biological target: T2, human VEGFA-165 (human, UniProt P15692-4 27-191); test: KinExA, VEGFA-165; set-up for VEGFA-165 not described
T2 construct: also called hVEGF-A165

[3] = biological target: T1, human VEGFA-121-His; test: KinExA equilibrium titration in solution, constant VEGFA-121-His
Method: All KinExA® experiments were performed at room temperature (RT) using PBS pH 7.4 with 0.01% BSA and 0.01% Tween® 20 (BioRad, #161-0781) as running buffer. […] A flow rate of 0.25 ml/min was used. […] Antigen-antibody complexes were incubated at RT for at least 8 h to allow equilibrium to be reached. […] Each sample was measured in duplicates for all equilibrium experiments. The KD was obtained from non-linear regression analysis of the data using a one-site homogeneous binding model contained within the KinExA® software (Version 4.0.11) using the “standard analysis” method. The software calculates the KD and determines the 95% confidence interval by fitting the data points to a theoretical KD curve. The 95% confidence interval is given as KD low and KD high.

[4] = biological target: T1, human VEGFA-121-His; test: SPR, VEGF-A121-His captured by anti-His antibody, Fab injected, single cycle kinetics
Method: (§1) An anti-His capturing antibody (GE Healthcare 28995056) was immobilized to a Series S Sensor Chip C1 (GE Healthcare BR100535) using standard amine coupling chemistry resulting in a surface density of approximately 600 resonance units (RU). As running and dilution buffer, HBS-P+ (10 mM HEPES, 150 mM NaCl pH 7.4, 0.05% Surfactant P20) was used. […] A dilution series of the tested antibody (3.7-300 nM, 1:3 dilution) was successively injected for 60 s each, dissociation was monitored for 3600 s at a flow rate of 30 μl/min (single cycle kinetics). The surface was regenerated by injecting 10 mM Glycine pH 1.5 for 60 s at a flow of 5 μl/min. […] Curve fitting was performed using the 1:1 Langmuir binding model within the Biacore® evaluation software.

[5] = biological target: T3, human Ang2-RBD-muFc (human, UniProt O15123 275-496, limits assumed); test: KinExA equilibrium titration in solution, constant Ang2-RBD-muFc
T3 construct: also called Human ANG2 (KinExA); not shown: murine Fc (muFc)
T3 sequence: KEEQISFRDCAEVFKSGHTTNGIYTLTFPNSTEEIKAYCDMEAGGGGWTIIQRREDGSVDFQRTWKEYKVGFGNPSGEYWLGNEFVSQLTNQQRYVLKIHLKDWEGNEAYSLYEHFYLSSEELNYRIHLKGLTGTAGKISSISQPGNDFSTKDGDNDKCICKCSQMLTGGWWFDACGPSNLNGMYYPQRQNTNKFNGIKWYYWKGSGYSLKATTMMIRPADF
Method: All KinExA® experiments were performed at room temperature (RT) using PBS pH 7.4 with 0.01% BSA and 0.01% Tween® 20 (BioRad, #161-0781) as running buffer. […] A flow rate of 0.25 ml/min was used. A constant amount of Ang2-RBD-muFc (50 pM and in a second experiment 500 pM) was titrated with tested antibody by twofold serial dilution starting at 4 nM (concentration range 1.95 pM-4000 pM). Antigen-antibody complexes were incubated at RT for at least 8 h to allow equilibrium to be reached. Equilibrated mixtures were then drawn through a column of Anti-Ang2 antibody (MAB098) coupled beads in the KinExA® system at a volume of 750 μl for 50 pM constant Ang2 and at a volume of 188 μl for 500 pM constant Ang2 permitting unbound Ang2 to be captured by the beads without perturbing the equilibrium state of the solution. Bound Ang2 was detected using a second biotinylated anti-Ang2 antibody (BAM0981) with a concentration of 250 ng/ml and following by an injection of 250 ng/ml Streptavidin Alexa Fluor™ 647 conjugate in sample buffer. Each sample was measured in duplicates for all equilibrium experiments. The KD was obtained from non-linear regression analysis of the data using a one-site homogeneous binding model contained within the KinExA® software (Version 4.0.11) using the “standard analysis” method. […]

[6] = biological target: T1, human VEGFA-121-His; test: SPR, VEGF-A121-His captured by anti-His antibody, Fab injected, single cycle kinetics, 1:1 fit
Method: as §1

[7] = biological target: T4, human Ang2-RBD (human, UniProt O15123 275-496, limits assumed); test: SPR, Fab captured by anti-Fab antibody, Ang2-RBD injected, 25 C, 1:1 fit
T4 construct: also called Human ANG2 (SPR); Angiopoietin 2-RBD
T4 sequence: T3 sequence
Method: An anti-Fab capturing antibody (GE Healthcare 28958325) was immobilized to a Series S Sensor Chip C1 (GE Healthcare BR100535) using standard amine coupling chemistry resulting in a surface density of approximately 800 resonance units (RU). As running and dilution buffer, HBS-P+ (10 mM HEPES, 150 mM NaCl pH 7.4, 0.05% Surfactant P20) was used, the temperature of measurement was 25° C. The tested antibody was captured by injecting a 50 nM solution for 60 sec at a flow of 5 μl/min. Association was measured by injection of human Ang2-RBD in various concentrations in solution for 180 sec at a flow of 30 μl/min (0.07 nM-50 nM, 1:3 dilution). The dissociation phase was monitored for up to 900 sec and triggered by switching from the sample solution to running buffer at a flow rate of 30 μl/min. The surface was regenerated by injection of 10 mM Glycine pH 2.1 for 60 s at a flow rate of 30 μl/min. Bulk refractive index differences were corrected by subtracting blank injections and by subtracting the response obtained from the reference flow cell without captured tested antibody. Curve fitting was performed using the 1:1 Langmuir binding model within the Biacore® evaluation software.

Kd [1]: ~4 pM
Kd [2]: ~2 pM
B1: bispecific anti-VEGF-A/anti-ANG2 Fab fragment P1AD9820 (Fab, V domains shown)
VH: SEHLVESGGGLVKPGGSLRLSCATADFFEYDDMSWVRQAPGKGLEWVGSISPKGDHKYLNTKFIGRFTISRDDSKNTLYLQMNSLRAEDTAVYYCARDVGFFDWWGQGTLVTVSS
VL: AIYMHQEPSSLSASVGDRVTITCHGSYWLNSEVAWYQQKPGKAPKLLIFDGDFKVYEVPSRFSGSGSHEDYTLTISSLQPEDFATYYCQQYRYHPYTFGHGTKVEIKR
notes: Bispecific Fab with two paratopes in one VH/VL pair; also called P1AD9820 Fab

Kd [3]: 10.9 pM
t1/2 [4]: 42.5 h
Kd [5]: 7180 pM
kon [6]: 1.66e+06 M⁻¹ s⁻¹
Kd [7]: 4550 pM
koff [7]: 0.032 s⁻¹
kon [7]: 7.03e+06 M⁻¹ s⁻¹
B2: bispecific anti-VEGF-A/anti-ANG2 Fab fragment P1AA8906 (Fab, V domains shown)
VH: DFQLVESGGGLVKPGGSLRLSCAASYEFEYDDMSWVRQAPGKGLEWVGSISPKGGSTYYNTKFIGRFTISRDNSKNTLYLQMNSLRAEDTAVYYCARDVGFFDMWGQGTLVTVSS
VL: B1 VL with N30S, S31N, E32Y, V33L, G51A, D52R, F53W, K54L, Y56H, E57G
notes: Bispecific Fab with two paratopes in one VH/VL pair (DutaFab); CH1 and Ckappa
